# T1: recombinant hFcγRIIB (human, UniProt P31994 43-217, limits assumed)
# T1 construct: construct not described; also called human FcγRIIB
# T1 sequence (looked up): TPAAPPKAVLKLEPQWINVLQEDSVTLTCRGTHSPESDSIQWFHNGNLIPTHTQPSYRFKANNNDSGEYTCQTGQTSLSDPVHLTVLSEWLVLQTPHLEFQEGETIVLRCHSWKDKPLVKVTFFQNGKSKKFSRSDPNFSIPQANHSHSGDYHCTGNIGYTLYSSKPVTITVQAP
# T2: recombinant mouse CD11c (R&D Systems) (mouse, UniProt Q9QXH4 20-1116)
# T2 construct: extracellular domain; Bought protein; also called recombinant CD11c
# T2 sequence (looked up): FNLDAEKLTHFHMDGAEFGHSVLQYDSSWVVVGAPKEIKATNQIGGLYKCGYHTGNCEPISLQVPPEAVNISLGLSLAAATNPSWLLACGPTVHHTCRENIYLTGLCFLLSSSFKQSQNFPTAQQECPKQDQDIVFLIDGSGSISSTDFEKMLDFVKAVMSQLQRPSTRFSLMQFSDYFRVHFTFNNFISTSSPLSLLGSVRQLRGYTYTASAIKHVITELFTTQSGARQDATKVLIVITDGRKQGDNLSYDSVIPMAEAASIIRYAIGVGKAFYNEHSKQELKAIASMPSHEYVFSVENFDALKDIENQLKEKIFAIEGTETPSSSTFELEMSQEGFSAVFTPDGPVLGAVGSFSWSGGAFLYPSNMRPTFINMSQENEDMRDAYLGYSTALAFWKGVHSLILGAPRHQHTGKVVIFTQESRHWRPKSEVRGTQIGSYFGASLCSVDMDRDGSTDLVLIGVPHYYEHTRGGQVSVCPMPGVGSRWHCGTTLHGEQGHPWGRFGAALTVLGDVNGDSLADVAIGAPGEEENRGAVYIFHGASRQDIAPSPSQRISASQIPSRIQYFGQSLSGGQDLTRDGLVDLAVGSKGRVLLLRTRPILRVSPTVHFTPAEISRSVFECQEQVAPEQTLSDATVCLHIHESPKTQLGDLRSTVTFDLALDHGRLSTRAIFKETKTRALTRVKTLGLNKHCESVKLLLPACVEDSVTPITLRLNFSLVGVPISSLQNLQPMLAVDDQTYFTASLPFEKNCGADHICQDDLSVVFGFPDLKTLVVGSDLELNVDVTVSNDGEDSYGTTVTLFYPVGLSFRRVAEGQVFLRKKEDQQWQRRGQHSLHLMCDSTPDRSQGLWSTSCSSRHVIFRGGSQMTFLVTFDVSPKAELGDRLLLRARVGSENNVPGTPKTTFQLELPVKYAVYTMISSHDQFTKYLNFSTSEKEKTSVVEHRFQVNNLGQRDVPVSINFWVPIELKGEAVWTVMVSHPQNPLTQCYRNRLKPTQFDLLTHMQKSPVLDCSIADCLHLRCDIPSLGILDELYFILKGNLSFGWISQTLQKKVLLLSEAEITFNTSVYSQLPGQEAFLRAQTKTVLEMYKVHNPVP
# Key:
# [1] = molecular target: T3, biotinylated human CD40 (Acrobiosystems) (human, UniProt P25942 21-193, biotinylated (site not stated)); test: simultaneous binding ELISA (FIG. 4A-D)
# T3 construct: also called huCD40
# T3 sequence (P25942 21-193 limits assumed): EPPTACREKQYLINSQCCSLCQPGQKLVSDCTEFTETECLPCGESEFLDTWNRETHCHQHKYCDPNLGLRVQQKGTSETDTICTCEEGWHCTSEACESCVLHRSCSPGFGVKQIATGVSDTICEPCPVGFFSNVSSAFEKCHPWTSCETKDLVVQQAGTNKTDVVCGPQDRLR
# Procedure: (§1) All sequential steps were performed at room temperature. After being washed, the plates were blocked for 1 hr with 1×PBS with 2% Bovine serum Albumin and were subsequently incubated for 1 hr with serially diluted IgGs (1:5 consecutive dilutions in 1×PBS with 2% Bovine serum Albumin). For dual binding ELISA assay, plates were incubated for 1 hr with biotinylated human CD40 (Acrobiosystems). After washing, plates were incubated for 1 hr with horseradish peroxidase-conjugated anti-human IgG (Jackson ImmunoResearch) or with horseradish peroxidase-conjugated Streptavidin (Biolegend). Detection was performed using a one component substrate solution (TMB) and reactions stopped with the addition of 0.18 M sulphuric acid. Absorbance at 450 nm was immediately recorded using a SpectraMax Plus spectrophotometer (Molecular Devices), and background absorbance from negative control samples was subtracted.
# [2] = molecular target: T4, recombinant human DEC-205 (Sino Biological), extracellular domain (human, UniProt O60449 28-1666); test: simultaneous binding ELISA (FIG. 4A-D)
# T4 construct: extracellular domain; Bought protein
# T4 sequence (O60449 28-1666): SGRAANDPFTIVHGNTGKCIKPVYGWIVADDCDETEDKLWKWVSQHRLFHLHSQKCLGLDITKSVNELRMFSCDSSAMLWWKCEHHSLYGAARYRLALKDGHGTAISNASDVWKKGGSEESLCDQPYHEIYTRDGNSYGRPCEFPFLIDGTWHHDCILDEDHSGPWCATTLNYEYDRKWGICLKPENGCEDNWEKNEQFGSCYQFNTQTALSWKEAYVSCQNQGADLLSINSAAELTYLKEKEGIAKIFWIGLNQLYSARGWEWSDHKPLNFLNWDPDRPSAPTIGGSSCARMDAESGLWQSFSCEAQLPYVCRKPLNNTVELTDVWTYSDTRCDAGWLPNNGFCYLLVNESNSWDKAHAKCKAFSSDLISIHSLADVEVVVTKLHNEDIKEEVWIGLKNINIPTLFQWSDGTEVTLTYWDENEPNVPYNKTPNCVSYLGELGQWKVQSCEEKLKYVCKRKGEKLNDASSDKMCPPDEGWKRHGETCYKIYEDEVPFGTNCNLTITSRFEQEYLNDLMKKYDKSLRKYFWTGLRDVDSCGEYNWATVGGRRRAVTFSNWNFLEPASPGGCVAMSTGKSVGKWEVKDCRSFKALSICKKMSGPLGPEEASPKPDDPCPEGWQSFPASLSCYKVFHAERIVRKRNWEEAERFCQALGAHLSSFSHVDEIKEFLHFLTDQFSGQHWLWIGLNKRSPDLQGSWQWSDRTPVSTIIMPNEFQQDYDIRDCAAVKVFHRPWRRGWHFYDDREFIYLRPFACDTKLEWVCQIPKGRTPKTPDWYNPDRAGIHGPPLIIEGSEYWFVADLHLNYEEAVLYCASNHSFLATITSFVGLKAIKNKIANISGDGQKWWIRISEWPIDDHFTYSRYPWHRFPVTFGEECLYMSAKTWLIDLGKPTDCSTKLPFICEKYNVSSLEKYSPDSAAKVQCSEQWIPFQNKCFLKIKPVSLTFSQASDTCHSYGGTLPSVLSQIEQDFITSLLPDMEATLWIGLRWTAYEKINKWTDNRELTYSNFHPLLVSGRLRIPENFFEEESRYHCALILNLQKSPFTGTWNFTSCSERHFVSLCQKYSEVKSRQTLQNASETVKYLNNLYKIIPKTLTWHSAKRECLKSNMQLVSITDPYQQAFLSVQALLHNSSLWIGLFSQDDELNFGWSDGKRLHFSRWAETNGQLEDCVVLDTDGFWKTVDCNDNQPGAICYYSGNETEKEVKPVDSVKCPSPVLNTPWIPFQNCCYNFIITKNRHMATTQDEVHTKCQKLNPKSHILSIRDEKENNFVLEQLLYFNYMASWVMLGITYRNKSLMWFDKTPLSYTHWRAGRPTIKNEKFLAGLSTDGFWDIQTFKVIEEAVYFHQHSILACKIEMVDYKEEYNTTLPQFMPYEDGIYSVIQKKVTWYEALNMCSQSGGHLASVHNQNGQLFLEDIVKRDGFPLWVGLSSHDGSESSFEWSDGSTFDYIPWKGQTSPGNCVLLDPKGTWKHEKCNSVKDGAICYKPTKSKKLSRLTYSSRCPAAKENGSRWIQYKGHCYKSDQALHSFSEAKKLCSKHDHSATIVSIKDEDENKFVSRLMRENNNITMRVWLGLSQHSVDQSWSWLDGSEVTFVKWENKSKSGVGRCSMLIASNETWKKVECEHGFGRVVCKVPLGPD
# Procedure: as §1
# [3] = molecular target: T5, recombinant human CD40 (Sino Biological), extracellular domain (human, UniProt P25942 21-193); test: ELISA titration on coated recombinant huCD40 (FIG. 4A)
# T5 construct: also called huCD40; hCD40
# T5 sequence (P25942 21-193 limits assumed): as the sequence (P25942 21-193 limits assumed) above
# Procedure: as §1
# recombinant hFcγRIIB = molecular target: T1, recombinant hFcγRIIB; test: ELISA on recombinant hFcγRIIB (FIG. 9B)
# [4] = molecular target: T4, recombinant human DEC-205 (Sino …); test: ELISA titration on coated recombinant human DEC-205 (FIG. 4B)
# Procedure: as §1
# [5] = molecular target: T2, recombinant mouse CD11c (R&D Systems); test: ELISA titration on coated recombinant mouse CD11c (FIG. 4B)
# Procedure: as §1
binding result (recombinant hFcγRIIB),binding result [4],Binder,further results
,binds,"anti-DEC-205 (HD109) monospecific Ab (antibody, V domains shown) VH: QVQLTESGPGLVAPSQSLSITCSVSGFSLTNYAINWVRQPPGKGLEWLGIIWTGGGTNYNSTLKSRLSISKDNSKSQVFLKMNSLQTDDTARYYCARVSHDYFYGSSPYYYGMDYWGQGTSVTVSS VL: DIQMNQSPSSLSASLGDTITITCHASQNINVWLSWYQQKPGNIPKLLIYKVSNLHTGVPSRFSGSGSGTGFTLTISSLQPEDIATYYCQQGQSYPWTFGGGTKLEIK",
,no binding,"anti-CD40 (2141) monospecific Ab (antibody, V domains shown, 2141 variable regions cloned on human IgG1 / human kappa backbones; also called clone 21.4.1; CD40 mAb) VH: not shown VL: DIQMTQSPSSVSASVGDRVTITCRASQGIYSWLAWYQQKPGKAPNLLIYTASTLQSGVPSRFSGSGSGTDFTLTISSLQPEDFATYYCQQANIFPLTFGGGTKVEIKR",binding result [5]: no binding

# The remaining lines, values behind:
Binder,binding result (recombinant hFcγRIIB),binding result [4],further results
"anti-CD40/DEC-205 bispecific Ab (2141/HD-109) (bispecific antibody, Whole human IgG1 bispecific of four chains; Knobs-into-holes: Y349C/T366S/L368A/Y407V on the anti-DC arm and S354C/T366W on the anti-CD40 arm; One arm is in CrossMab CH1-CL format) VH 1: not shown VL 1: DIQMTQSPSSVSASVGDRVTITCRASQGIYSWLAWYQQKPGKAPNLLIYTASTLQSGVPSRFSGSGSGTDFTLTISSLQPEDFATYYCQQANIFPLTFGGGTKVEIKRTVAAPSVFIFPPSDEQLKSGTASVVCLLNNFYPREAKVQWKVDNALQSGNSQESVTEQDSKDSTYSLSSTLTLSKADYEKHKVYACEVTHQGLSSPVTKSFNRGEC VH 2: QVQLTESGPGLVAPSQSLSITCSVSGFSLTNYAINWVRQPPGKGLEWLGIIWTGGGTNYNSTLKSRLSISKDNSKSQVFLKMNSLQTDDTARYYCARVSHDYFYGSSPYYYGMDYWGQGTSVTVSS VL 2: DIQMNQSPSSLSASLGDTITITCHASQNINVWLSWYQQKPGNIPKLLIYKVSNLHTGVPSRFSGSGSGTGFTLTISSLQPEDIATYYCQQGQSYPWTFGGGTKLEIK",,,binding result [1]: binds; binding result [2]: binds; binding result [3]: binds
"CD40/CD11c-V11 (bispecific antibody, human IgG1, Human IgG1 Fc with V11 (G237D/P238D/H268D/P271G/A330R); also called anti-CD40/CD11c bsAb hIgG1-V11; IgG1-V11; copies: 1 + 1 + 1 + 1) heavy 1: not shown light 1: DIQMTQSPSSVSASVGDRVTITCRASQGIYSWLAWYQQKPGKAPNLLIYTASTLQSGVPSRFSGSGSGTDFTLTISSLQPEDFATYYCQQANIFPLTFGGGTKVEIKRTVAAPSVFIFPPSDEQLKSGTASVVCLLNNFYPREAKVQWKVDNALQSGNSQESVTEQDSKDSTYSLSSTLTLSKADYEKHKVYACEVTHQGLSSPVTKSFNRGEC heavy 2: EVQLVEKGGGLVQPGKSLKLSCAASGFTFSEYWMNWVRQAPGKGLEWVGVIKYKYSNYATEYAESVKGRFTISRDDSKSSVYLQMNNLRAEDTAIYYCARTWENWYFDFWGQGTQVTVSSASVAAPSVFIFPPSDEQLKSGTASVVCLLNNFYPREAKVQWKVDNALQSGNSQESVTEQDSKDSTYSLSSTLTLSKADYEKHKVYACEVTHQGLSSPVTKSFNRGECDRSEPKSCDKTHTCPPCPAPELLGDDSVFLFPPKPKDTLMISRTPEVTCVVVDVSDEDGEVKFNWYVDGVEVHNAKTKPREEQYNSTYRVVSVLTVLHQDWLNGKEYKCKVSNKALPRPIEKTISKAKGQPREPQVCTLPPSREEMTKNQVSLSCAVKGFYPSDIAVEWESNGQPENNYKTTPPVLDSDGSFFLVSKLTVDKSRWQQGNVFSCSVMHEALHNHYTQKSLSLSPGKSAWSHPQFEK light 2: DIQMTQSPSSLPASLGDRVTIHCQASQDISNYLTWYQQKPGKAPKLLIYETNKLADGVPSRFSGSGSGRDYSFTISSLESEDVGSYYCQHYYDYPRTFGPGTKLDLKSSASTKGPSVFPLAPSSKSTSGGTAALGCLVKDYFPEPVTVSWNSGALTSGVHTFPAVLQSSGLYSLSSVVTVPSSSLGTQTYICNVNHKPSNTKVDKKVEPKSC",binds,,
"CD40/DEC-205-V11 (bispecific antibody, human IgG1, Human IgG1 Fc with V11 (G237D/P238D/H268D/P271G/A330R); also called IgG1-V11; copies: 1 + 1 + 1 + 1) heavy 1: not shown light 1: DIQMTQSPSSVSASVGDRVTITCRASQGIYSWLAWYQQKPGKAPNLLIYTASTLQSGVPSRFSGSGSGTDFTLTISSLQPEDFATYYCQQANIFPLTFGGGTKVEIKRTVAAPSVFIFPPSDEQLKSGTASVVCLLNNFYPREAKVQWKVDNALQSGNSQESVTEQDSKDSTYSLSSTLTLSKADYEKHKVYACEVTHQGLSSPVTKSFNRGEC heavy 2: QVQLTESGPGLVAPSQSLSITCSVSGFSLTNYAINWVRQPPGKGLEWLGIIWTGGGTNYNSTLKSRLSISKDNSKSQVFLKMNSLQTDDTARYYCARVSHDYFYGSSPYYYGMDYWGQGTSVTVSSASVAAPSVFIFPPSDEQLKSGTASVVCLLNNFYPREAKVQWKVDNALQSGNSQESVTEQDSKDSTYSLSSTLTLSKADYEKHKVYACEVTHQGLSSPVTKSFNRGECDRSEPKSCDKTHTCPPCPAPELLGDDSVFLFPPKPKDTLMISRTPEVTCVVVDVSDEDGEVKFNWYVDGVEVHNAKTKPREEQYNSTYRVVSVLTVLHQDWLNGKEYKCKVSNKALPRPIEKTISKAKGQPREPQVCTLPPSREEMTKNQVSLSCAVKGFYPSDIAVEWESNGQPENNYKTTPPVLDSDGSFFLVSKLTVDKSRWQQGNVFSCSVMHEALHNHYTQKSLSLSPGKSAWSHPQFEK light 2: DIQMNQSPSSLSASLGDTITITCHASQNINVWLSWYQQKPGNIPKLLIYKVSNLHTGVPSRFSGSGSGTGFTLTISSLQPEDIATYYCQQGQSYPWTFGGGTKLEIKSSASTKGPSVFPLAPSSKSTSGGTAALGCLVKDYFPEPVTVSWNSGALTSGVHTFPAVLQSSGLYSLSSVVTVPSSSLGTQTYICNVNHKPSNTKVDKKVEPKSC",binds,,
